Reference: patent US20190201542A1 (AbbVie / Abbott, published 2019)

B1: SC16.147 (antibody, V domains shown)
VH: QIQLVQSGPELTKPGETVKISCKASGYTFTDYSLHWVKQALGKGLKWMGWINTETGEPAYADDFKGRFAFSLETSASTAYLQINDLKNEDTTTYFCGIYDGYAMDYWGQGTSVTVSS
VL: DIQMTQTASSLSASLGDRVTISCRASQDINNYLNWYQQKPDGTVKLLIYYTSRLHSGVPSRFSGSGSGTDYSLTISILEQEDIATYFCQQGDTLPWTFGGGTKLEIK
notes: murine mAb
B2: SC16.15 (antibody, V domains shown)
VH: QVQLQQSGAELAKPGASVKMSCKASGYTFTRYWIHWIKQRPGQGLEWIGYINPTTVYTEFNQNFKDKATLTADKSSTTASMQLSSLTSEDSAVYYCARGGSNFFDYWGQGTTLTVSS
VL: DIQMTQSPASLAASVGETVAITCRASENIYYNLAWYQQKQGKSPQLLIYTANSLEDGVPSRFSGSGSGTQYSLKINSMQPEDSATYFCKQAYDVPPTFGGGTKLEIK
notes: murine mAb
B3: SC16.130 (antibody, V domains shown)
VH: EVQLQQSGPELVKPGASVKMSCKASGYTFTSYVMHWVKQKPGQGLEWIGYINPYNDGTEYNEKFKGKATLTSDKSSSTAYMELSSLTSEDSAVYYCARGVYDGYSYFDYWGQGTTLTVSS
VL: DIQLTQSPASLSASVGETVTITCRASGSIHNYLAWYQQKQGKSPQLLVYNAKTLVDGVPSRFSGSGSGTQYSLKINSLQPEDFGYYYCQHFWTTPWTFGGGTKLEIK
notes: murine mAb
B4: SC16.136 (antibody, V domains shown)
VH: EVQLQQSGPELVKPGASVKMSCKASGYTFTSYVMHWVKQKPGQGLEWIGYINPYNDGTKYNEKFKGKATLTSDKSSSTAYMELSSLTSEDSAVYYCARDRSGYEDYYGMDYWGQGTSVTVSS
VL: DIQMTQSPASLSASVGETVTITCRASGNIHNYLAWYQQKQGKSPHLLVYNAKTLADGVPSRFSGSGSGTQYSLKINSLQPEDFGSYYCQHFWSTPWTFGGGTKLEIK
notes: murine mAb
B5: SC16.143 (antibody, V domains shown)
VH: QVQLQQSGPELVKPGASVRISCKASGYTFTSYYIHWVKQRPGQGLEWIGWIYPGNGNTKYNEKFKGKATLTADKSSSTAYMQISSLTSEDSAVYFCARERWLLLWFAYWGQGTLVTVSA
VL: DVLMTQTPLSLPVSLGDQASISCRSSQSIVHSNGNTYLEWYLQKPGQSPKLLIYKVSNRFSGVPDRFSGSGSGTDFTLKISRVEAEDLGVYYCFQGSHVPLTFGAGTKLELK
notes: murine mAb
B6: SC16.135 (antibody, V domains shown)
VH: QVQLQQSGAELVRPGTSVKVSCKASGYAFTNYLIEWVKQRPGQGLEWIGVINPGSGGTNSNEKFKAKATLTADKSSSTAYMQLSSLTSADSAVYFCARSDYDYAFYAMDYWGQGTSVTVSS
VL: DIKMTQSPSSMYASLGERVTITCKASQDINRYLSWFQQKPGKSPKTLIYRANRLVDGVPSRFSGSGSGQDYSLTISSLEYEDMGIYYCLQYDEFPFTFGSGTKLEIK
notes: murine mAb
B7: SC16.141 (antibody, V domains shown)
VH: QVQLKQSGPGLVAPSQSLFITCTVSGFSLTSYEINWVRQPPGKGLEWLGVIWTGGSTNYNSALISRLSISKDNSKSLVFLKMNSLQTDDTAIYYCVRGVYAMDYWGQGTSVTVSS
VL: DIKMTQSPSSMYASLGERVTITCKASQDINSYLSWFQQKPGKSPKTLIYRANRLVDGVPSRFSGSGSGQDYSLTISSLEYEDMGIYYCLQYDEFPFTFGSGTKLEIK
notes: murine mAb
B8: SC16.133 (antibody, V domains shown)
VH: QVQLKESGPGLVAPSQSLSITCTVSGFSLTNYAVHWVRQSPGKGLEWLGVIWSDGSTDYNAAFISRLSISKDNSKSQVFFKMNSLQADDTAMYYCARKKGGWFPWFAYWGQGTLVTVSA
VL: SIVMTQTPKFLLVSAGDRVTITCKASQSVSNDVAWYQQKPGQSPKLLIYCASNRYTGVPDRFTGSGYGTDFTFTISTVQAEDLAVYFCQQDYSSPLTFGAGTKLELK
notes: murine mAb
B9: SC16.144 (antibody, V domains shown)
VH: QIQLVQSGPELKKPGETVKISCKASGYTFTNYGMNWVKQAPGKGLKWVGWINTYTGEPTYADDFKGRFAFSLETSASTAYLQIDNLKNEDTATYFCARVGDYVGFDYWGQGTTLTVSS
VL: SIVMTQTPKFLLVSAGDRVTITCKASQSVSNDVGWYQQKPGQSPKLLIYYASNRYNGVPDRFTGSGYGTDFTFTISTVQAEDLAVYFCQQDYSSPWTFGGGTKLEIK
notes: murine mAb
B10: SC16.129 (antibody, V domains shown)
VH: QVQLKESGPGLVAPSQSLSITCTVSGFSLTDYGVSWIRQPPGKGLEWLGVIWGGGSTYYNSALKSRLSISKDNSKSQVFLELNSLQTDDTAIYYCAKHYGHYAAYWGQGTLVTVSA
VL: DIQMTQSPASQSASLGESVTITCLASQTIGTWLAWYQQKPGKSPQLLIYAATSLADGVPSRFSGSGSGTKFSFKISSLQAEDFVSYYCQQLYSTPYTFGGGTKLEIK
notes: murine mAb
B11: SC16.138 (antibody, V domains shown)
VH: QVQLKESGPGLVAPSQSLSITCTVSGFSLTDYGVSWIRQPPGKGLEWLGVVWGGGSTYYNSALKSRLSISKDNSKSQVFLKMNSLQTDDTAMYYCAKQRGQYGAYWGQGTLVTVSA
VL: DIQMTQSPASQSASLGESVTITCLASQTIGTWLAWYQQKPGKSPQLLIYSATSLADGVPSRFSGSGSGTKFSFKISSLQAEDFVSYYCQQLYSTPWTFGGGTKLEIK
notes: murine mAb
B12: SC16.137 (antibody, V domains shown)
VH: EVQLVESGGDLVKPGGSLKLSCAASGFTFSSYGMSWVRQTPDKRLEWVATISSGGSYTYYPDSVKGRFTISRDNAKNTLYLQMSSLKSEDTAMYYCARRRADAMDYWGQGTSVTVSS
VL: QIVLTQSPAIMSASLGEEITLTCSASSSVSYMHWYQQKSGTSPKLLIYSTSNLASGVPSRFSGSGSGTFYSLTISSVEAEDAADYYCHQWSSYHTFGGGTKLEIKR
notes: murine mAb
B13: SC16.148 (antibody, V domains shown)
VH: QIQLVQSGPELKKPGETVKISCKASGYTLTNYGMNWVKQAPGKGLKWMGWINTYTGEPTYADDFKGRFAFSLETSARIVYLQINNLKNEDTATYFCAKYEAHEGFVYWGQGTLVTVSA
VL: QIVLTQSPAIMSASPGEKVTMTCSASSSVSYMYWYQQKPGSSPRLLIYDTSNLASGVPVRFSGSGSGTSYSLTISRMEAEDTATYYCQEWSNNPLTFGDGTKLELK
notes: murine mAb
B14: SC16.140 (antibody, V domains shown)
VH: QVQLQQSGPELVRPGASVKMSCKASGYTFTSYWMHWVKQRPGQGLEWIGMIDPSNSETRLNQKFKDKATLNVDKSSNTAYMQLSSLTSEDSAVYYCAVMDYYFDYWGQGTTLTVSS
VL: DIVLTQSLASLAVSLGQRATISCRASKSVSTSGYSYMHWYQQKPGQPPKLLIYLASNLESGVPARFSGSGSGTDFTLNIHPVEDEDAATYYCQHSRELPFTFGGGTKLEIK
notes: murine mAb
B15: SC16.131 (antibody, V domains shown)
VH: QVQLKESGPGLVAPSQSLSITCTVSGFSLTNYGVHWVRQPPGKGLEWLGVIWAGGITNYNSALMSRLSISEDNSKSQVFLKMNSLQTDDTAMYYCARNLGPYAMDYWGQGTSVTVSS
VL: DIQMNQSPSSLSASLGDTITITCHVSQNINVWLSWYQQKPGNIPKLLIQKASNLHTGVPSRFSGSGSGTGFTLTISSLQPEDIATYYCQQGQSYPFTFGSGTKLEIK
notes: murine mAb

Molecular target: T1, human DLL3 (human, UniProt Q9NYJ7 27-492, limits assumed)
T1 construct: also called hDLL3; DLL3 protein
T1 sequence: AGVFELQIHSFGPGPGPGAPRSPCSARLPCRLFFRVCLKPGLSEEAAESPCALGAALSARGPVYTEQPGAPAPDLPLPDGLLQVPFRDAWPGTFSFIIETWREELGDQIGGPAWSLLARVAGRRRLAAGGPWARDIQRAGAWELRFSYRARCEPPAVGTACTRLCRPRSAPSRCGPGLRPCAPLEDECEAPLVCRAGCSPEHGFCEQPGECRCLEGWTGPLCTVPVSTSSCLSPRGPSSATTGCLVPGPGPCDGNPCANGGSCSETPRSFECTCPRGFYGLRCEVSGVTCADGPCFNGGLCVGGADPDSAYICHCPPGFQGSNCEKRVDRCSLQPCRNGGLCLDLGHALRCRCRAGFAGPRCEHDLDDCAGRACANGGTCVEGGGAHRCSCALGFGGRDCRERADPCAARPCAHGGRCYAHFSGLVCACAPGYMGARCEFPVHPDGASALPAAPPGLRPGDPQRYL
Assay: screen on immobilized hDLL3 or h293-hDLL3 cells
Method in brief: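 Solid-phase ELISA on DLL3-His (0.5 μg/ml coating), developed with HRP anti-mouse IgG and TMB and read at OD 450, was one screen for supernatants of single-cell hybridomas from human DLL3-immunized mice taken after 10 days in culture. Flow-cytometry binding counted as positive only above the control.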

Binding result, binds:
B1, B2, B3, B4, B5, B6, B7, B8, B9, B10, B11, B12, B13, B14, B15
